According to patent US20220242953A1 (JIANGSU HENGRUI MEDICINE, published 2022):

Key:
[1] = target: T1, human B7H3 on the cell surface (A498, CT26/hB7H3, U87, Detroit562 cells) (human, UniProt Q5ZPR3 29-534); test: FACS on CT26/hB7H3 cells over-expressing human B7H3, APC anti-human IgG Fc detection, geometric mean fluorescence
T1 construct: Endogenous on A498, U87 and Detroit562 tumor cells, over-expressed on CT26/hB7H3
T1 sequence: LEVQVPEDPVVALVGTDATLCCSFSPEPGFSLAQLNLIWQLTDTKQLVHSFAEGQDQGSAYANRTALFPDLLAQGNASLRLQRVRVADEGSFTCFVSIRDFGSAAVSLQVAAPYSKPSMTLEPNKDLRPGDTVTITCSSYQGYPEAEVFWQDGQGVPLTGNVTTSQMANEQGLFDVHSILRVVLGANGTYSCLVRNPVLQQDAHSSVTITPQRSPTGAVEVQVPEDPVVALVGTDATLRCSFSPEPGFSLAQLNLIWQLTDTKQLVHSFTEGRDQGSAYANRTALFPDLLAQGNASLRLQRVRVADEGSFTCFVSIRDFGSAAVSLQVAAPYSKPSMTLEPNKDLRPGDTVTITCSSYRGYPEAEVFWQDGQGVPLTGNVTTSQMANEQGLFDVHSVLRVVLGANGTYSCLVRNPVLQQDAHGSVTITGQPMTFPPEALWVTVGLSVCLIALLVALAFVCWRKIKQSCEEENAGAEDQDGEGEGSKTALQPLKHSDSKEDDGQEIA
Procedure: (§1) The ability of bispecific antibodies to bind to cell surface antigens was detected by FACS method.
(§2) FACS buffer (98% PBS, 2% FBS) was added into a 96-well U-shaped bottom plate (corning, 3795) to resuspend the cells, the serially diluted antibodies were added, incubated at 4° C. for 1 hour, and the plate was washed with FACS buffer twice. Then APC anti-human IgG Fc Antibody (biolegend, Cat #409306, dilution at 1:50) was added into each well, incubated at 4° C. for 30 minutes, washed twice, the cells were resuspended in FACS buffer, and finally the fluorescence signal values were read by FACS CantoII (BD).

[2] = target: T1, human B7H3 on the cell surface (A498, …); test: cell-based or functional assay
[3] = target: T2, Monkey CD3 antigen for detection (Acro biosystem cat #CDD-C52W4); monkey CD3 epsilon-His and monkey CD3 … (monkey (cyno), UniProt Q95LI5 22-117; Q95LI8 22-105); test: Biacore T200 SPR, bispecific antibody captured, antigen as analyte, 1:1 Langmuir fit
T2 construct: Bought antigen
Procedure: (§3) The detection of antibody affinity to B7H3 and CD3 was performed in the form of capture antibody. BsAb was captured by CM5 biosensor chip (Cat. #BR-1005-30, GE) or Protein A (Cat. #29127556, GE) biosensor chip coupled with Anti-Human IgG Antibody (Cat. #BR-1008-39, Lot. #10260416, GE), and then each antigen flowed through the surface of the chip. The reaction signals were detected in real time with the Biacore T200 instrument to obtain the binding and dissociation curves. After the dissociation of each experimental cycle was completed, the chip was washed and regenerated with regeneration buffer Glycine1.5 (Cat #BR100354, GE) or 3 M MgCl₂ (from Human antibody capture kit, Cat. #BR100839, GE). The data were fitted with the (1:1) Langmuir model using GE Biacore T200 Evaluation version 3.0 software, and the affinity values were obtained.

[4] = target: T3, Human CD3 antigen for detection (SinoBiological cat #CT038-H2508H); human CD3 epsilon-His and human CD3 … (human, UniProt P07766 23-126; P04234 22-105); test: as above
T3 construct: Bought antigen
Procedure: as §3

[5] = target: T4, Human B7H3 antigen for detection (SinoBiological cat #11188-H08H) (human, UniProt Q5ZPR3 29-461); test: as above
T4 construct: Bought antigen
T4 sequence: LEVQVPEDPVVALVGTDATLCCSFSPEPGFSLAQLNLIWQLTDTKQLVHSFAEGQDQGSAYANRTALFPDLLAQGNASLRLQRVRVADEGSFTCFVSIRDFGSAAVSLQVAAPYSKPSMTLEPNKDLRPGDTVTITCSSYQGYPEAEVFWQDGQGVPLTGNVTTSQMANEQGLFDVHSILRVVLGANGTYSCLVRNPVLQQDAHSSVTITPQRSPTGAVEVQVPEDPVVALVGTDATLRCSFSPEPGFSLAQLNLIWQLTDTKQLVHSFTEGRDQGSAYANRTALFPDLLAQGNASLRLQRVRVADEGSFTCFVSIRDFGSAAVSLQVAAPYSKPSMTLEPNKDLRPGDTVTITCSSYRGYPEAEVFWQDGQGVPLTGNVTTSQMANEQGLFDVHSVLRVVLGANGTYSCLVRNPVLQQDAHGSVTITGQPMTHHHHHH
Procedure: as §3

[6] = target: T5, Monkey B7H3 antigen for detection (SinoBiological cat #90806-C08H) (monkey (cyno)); test: as above
T5 construct: Bought antigen; also called monkey (cyno) B7H3
T5 chain: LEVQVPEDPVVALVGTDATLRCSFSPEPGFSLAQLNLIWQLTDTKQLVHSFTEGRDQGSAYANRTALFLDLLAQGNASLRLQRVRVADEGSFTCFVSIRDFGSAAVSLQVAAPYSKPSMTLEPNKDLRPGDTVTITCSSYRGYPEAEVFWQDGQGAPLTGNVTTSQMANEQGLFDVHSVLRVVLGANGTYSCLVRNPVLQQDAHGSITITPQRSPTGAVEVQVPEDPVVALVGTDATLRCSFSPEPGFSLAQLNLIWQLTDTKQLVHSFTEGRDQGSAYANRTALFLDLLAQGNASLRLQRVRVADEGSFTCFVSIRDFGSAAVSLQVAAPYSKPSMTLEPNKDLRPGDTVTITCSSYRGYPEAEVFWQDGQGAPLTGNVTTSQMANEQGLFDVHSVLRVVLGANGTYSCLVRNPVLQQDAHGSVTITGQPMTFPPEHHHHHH
Procedure: as §3

[7] = target: human CD3 on the cell surface (Jurkat recombinant cells; T cells of PBMC) (human, UniProt P07766 23-207; P04234 22-171); test: FACS on Jurkat recombinant cells expressing CD3, APC anti-human IgG Fc detection, geometric mean fluorescence
Procedure: as §1, §2

[8] = target: T1, human B7H3 on the cell surface (A498, …); test: FACS on A498 cells expressing human B7H3, APC anti-human IgG Fc detection, geometric mean fluorescence
Procedure: as §1, §2

[9] = target: T3, Human CD3 antigen for detection …; test: Biacore T200 SPR, bispecific antibody captured, CD3 antigen as analyte, 1:1 Langmuir fit
Procedure: as §3

[10] = target: T3, Human CD3 antigen for detection …; test: Biacore T200 SPR, bispecific antibody captured, CD3 antigen as analyte
Procedure: as §3

T2 sequence (Q95LI5 other isoform, or with tags, fused parts or gaps mutant, chain 1 of 2): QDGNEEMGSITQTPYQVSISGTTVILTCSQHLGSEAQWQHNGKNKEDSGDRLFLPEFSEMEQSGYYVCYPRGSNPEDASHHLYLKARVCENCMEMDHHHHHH
T2 sequence (Q95LI8 other isoform, or with tags, fused parts or gaps mutant, chain 2 of 2): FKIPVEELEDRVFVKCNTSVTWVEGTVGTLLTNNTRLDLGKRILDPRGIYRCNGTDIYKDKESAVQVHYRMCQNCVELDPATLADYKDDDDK
T3 sequence (P07766 other isoform, or with tags, fused parts or gaps H2508H H2508H, chain 1 of 2): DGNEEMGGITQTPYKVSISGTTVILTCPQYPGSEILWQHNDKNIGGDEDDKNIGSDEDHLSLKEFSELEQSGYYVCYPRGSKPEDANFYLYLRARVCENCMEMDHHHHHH
T3 sequence (P04234 other isoform, or with tags, fused parts or gaps H2508H H2508H, chain 2 of 2): as the sequence (Q95LI8 other isoform, or with tags, fused parts or gaps mutant, chain 2 of 2) above, with V5I, K15N, V20I, T32S, N33D, N34I, A64T, N74S, L83V counted along it
Chain of human CD3 on the cell surface (Jurkat recombinant cells; T cells of PBMC) (P07766 23-207, chain 1 of 2): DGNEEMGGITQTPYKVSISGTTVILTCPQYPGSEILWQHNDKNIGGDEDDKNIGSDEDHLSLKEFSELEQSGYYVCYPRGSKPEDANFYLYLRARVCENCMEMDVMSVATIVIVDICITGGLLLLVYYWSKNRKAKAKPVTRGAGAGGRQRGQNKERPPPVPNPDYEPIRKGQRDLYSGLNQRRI
Chain of human CD3 on the cell surface (Jurkat recombinant cells; T cells of PBMC) (P04234 22-171, chain 2 of 2): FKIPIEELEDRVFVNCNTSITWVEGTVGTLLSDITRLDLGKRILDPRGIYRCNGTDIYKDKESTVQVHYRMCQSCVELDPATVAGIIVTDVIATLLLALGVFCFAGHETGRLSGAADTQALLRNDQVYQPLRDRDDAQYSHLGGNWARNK

B1: bispecific antibody 118 (AFF 6-3) (bispecific antibody)
chain 1: not shown
chain 2: QTVVTQEPSFSVSPGGTVTLTCGLSSGSVSTSHYPSWYQQTPGQAPRMLIYNTNTRSSGVPDRFSGSILGNKAALTITGAQADDESDYYCAIHVDRDIWVFGGGTKLTVLGGGGSGGGGSGGGGSQVQLVQSGGGVVQPGTSLRLSCAASGFIFSSSAMHWVRQAPGKGLEWVAVISYDGSNKYYVDSVKGRFTISRDNSKNTLYLQMNSLRAEDTAVYYCARSARLYASFDYWGQGALVTVSSGGGDKTHTCPPCPAPEAAGGPSVFLFPPKPKDTLMISRTPEVTCVVVDVSHEDPEVKFNWYVDGVEVHNAKTKPREEQYNSTYRVVSVLTVLHQDWLNGKEYKCKVSNKALPAPIEKTISKAKGQPREPQVCTLPPSREEMTKNQVSLSCAVKGFYPSDIAVEWESNGQPENNYKTTPPVLDSDGSFFLVSKLTVDKSRWQQGNVFSCSVMHEALHNHYTQKSLSLSPGK
notes: B7H3 bivalent CD3-B7H3 bispecific antibody, CD3 VH HRH-3, CD3 scFv at the N-terminus
EC50 (read off the curve) [1]: ~1 nM
Emax (%), PBMC-mediated killing of A498 cells (B7H3 high) [2]: 65.9%
Emax (%), PBMC-mediated killing of Detroit562 cells (B7H3 low) [2]: 39.2%
Emax (%), PBMC-mediated killing of U87 cells (B7H3 intermediate) [2]: 67.2%
IC50 (nM), PBMC-mediated killing of A498 cells (B7H3 high) [2]: 0.34 nM
IC50 (nM), PBMC-mediated killing of Detroit562 cells (B7H3 low) [2]: 14.5 nM
IC50 (nM), PBMC-mediated killing of U87 cells (B7H3 intermediate) [2]: 2.4 nM
Kd [3]: 1.59 nM
Kd [4]: 66.1 nM
Kd [5]: 5.33 nM
Kd [6]: 7.31 nM
EC50 (read off the curve) [7]: ~100 nM

B2: bispecific antibody 127 (AFF3-3) (bispecific antibody)
chain 1: not shown
chain 2: B1 chain 2
notes: B7H3 bivalent CD3-B7H3 bispecific antibody, CD3 VH HRH-3
EC50 (read off the curve) [1]: ~2 nM
Emax (%), PBMC-mediated killing of A498 cells (B7H3 high) [2]: 67.5%
Emax (%), PBMC-mediated killing of Detroit562 cells (B7H3 low) [2]: 26.5%
Emax (%), PBMC-mediated killing of U87 cells (B7H3 intermediate) [2]: 69.5%
IC50 (nM), PBMC-mediated killing of A498 cells (B7H3 high) [2]: 2.4 nM
IC50 (nM), PBMC-mediated killing of Detroit562 cells (B7H3 low) [2]: 15.8 nM
IC50 (nM), PBMC-mediated killing of U87 cells (B7H3 intermediate) [2]: 8.2 nM
EC50 (read off the curve) [8]: ~40 nM
Kd [9]: 97.2 nM
Kd [3]: 1.24 nM
Kd [4]: 84.7 nM
Kd [5]: 4.29 nM
Kd [6]: 5.61 nM

B3: bispecific antibody 132 (AFF3-3SS) (bispecific antibody)
chain 1: not shown
chain 2: B1 chain 2
EC50 (read off the curve) [1]: ~2 nM
Emax (%), PBMC-mediated killing of A498 cells (B7H3 high) [2]: 66.4%
Emax (%), PBMC-mediated killing of Detroit562 cells (B7H3 low) [2]: 15.2%
Emax (%), PBMC-mediated killing of U87 cells (B7H3 intermediate) [2]: 67.6%
IC50 (nM), PBMC-mediated killing of A498 cells (B7H3 high) [2]: 2.94 nM
IC50 (nM), PBMC-mediated killing of Detroit562 cells (B7H3 low) [2]: 15.7 nM
IC50 (nM), PBMC-mediated killing of U87 cells (B7H3 intermediate) [2]: 11.9 nM
EC50 (read off the curve) [8]: ~30 nM
Kd [3]: 0.813 nM
Kd [4]: 85.3 nM
Kd [5]: 5.35 nM
Kd [6]: 6.9 nM
EC50 (read off the curve) [7]: ~300 nM

B4: bispecific antibody 155 (AFF3-5) (bispecific antibody)
chain 1: not shown
chain 2: B1 chain 2
notes: B7H3 bivalent CD3-B7H3 bispecific antibody, CD3 VH HRH-5
binding result [10]: no binding

B5: bispecific antibody 156 (AFF3-6) (bispecific antibody)
chain 1: not shown
chain 2: B1 chain 2
notes: B7H3 bivalent CD3-B7H3 bispecific antibody, CD3 VH HRH-6
binding result [10]: no binding
